The term EC50 denotes the concentration giving half of the maximal effect.

Results on seven molecules are retold here after patent US20210269521A1 (L AND L BIOPHARMA, published 2021).

First the molecules themselves.
B1: bispecific antibody LB1413 (bispecific antibody, human IgG4 S228P, kappa)
light: DIQMTQSPSSLSASVGDRVTITCHASQGISSNIGWLQQKPGKAFKGLIYQGSNLEDGVPSRFSGSGSGADYTLTISSLQPEDFATYYCVQFAQFPPTFGQGTKLEIKGGGGSGGGGSGGGGSEVQLVESGGGLVKPGGSLRLSCAASGFTFSDYYMAWVRQAPGKGLEWVANINYDGSNTYYLDSLKSRFTISRDNAKNSLYLQMNSLRAEDTAVYYCARGLYYYGGNYFAYWGQGTLVTVSSGGGGSGGGGSGGGGSEIVLTQSPATLSLSPGERATLSCRASKGVSTSGYSYLHWYQQKPGQAPRLLIYLASYLESGVPARFSGSGSGTDFTLTISSLEPEDFAVYYCQHSRDLPLTFGGGTKVEIKRTVAAPSVFIFPPSDEQLKSGTASVVCLLNNFYPREAKVQWKVDNALQSGNSQESVTEQDSKDSTYSLSSTLTLSKADYEKHKVYACEVTHQGLSSPVTKSFNRGEC
heavy: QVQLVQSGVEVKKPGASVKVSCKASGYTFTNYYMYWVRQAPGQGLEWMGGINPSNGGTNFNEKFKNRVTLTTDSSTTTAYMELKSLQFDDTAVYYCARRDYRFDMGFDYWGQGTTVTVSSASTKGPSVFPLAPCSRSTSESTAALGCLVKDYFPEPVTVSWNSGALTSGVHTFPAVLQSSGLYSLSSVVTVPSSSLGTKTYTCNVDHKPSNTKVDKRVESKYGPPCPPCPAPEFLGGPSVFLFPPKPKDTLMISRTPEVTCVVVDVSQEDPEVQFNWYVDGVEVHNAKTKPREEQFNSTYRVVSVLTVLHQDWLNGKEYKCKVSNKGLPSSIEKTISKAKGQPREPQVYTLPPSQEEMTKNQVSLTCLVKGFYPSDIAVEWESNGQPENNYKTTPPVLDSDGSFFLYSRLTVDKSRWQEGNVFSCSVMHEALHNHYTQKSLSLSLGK
notes: ab6VL-(G4S)3-ab6VH-(G4S)3-PemVL-κ with PemVH-hIgG4
B2: bispecific antibody LB244 (bispecific antibody, human IgG4 S228P, kappa)
light: B1 light
heavy: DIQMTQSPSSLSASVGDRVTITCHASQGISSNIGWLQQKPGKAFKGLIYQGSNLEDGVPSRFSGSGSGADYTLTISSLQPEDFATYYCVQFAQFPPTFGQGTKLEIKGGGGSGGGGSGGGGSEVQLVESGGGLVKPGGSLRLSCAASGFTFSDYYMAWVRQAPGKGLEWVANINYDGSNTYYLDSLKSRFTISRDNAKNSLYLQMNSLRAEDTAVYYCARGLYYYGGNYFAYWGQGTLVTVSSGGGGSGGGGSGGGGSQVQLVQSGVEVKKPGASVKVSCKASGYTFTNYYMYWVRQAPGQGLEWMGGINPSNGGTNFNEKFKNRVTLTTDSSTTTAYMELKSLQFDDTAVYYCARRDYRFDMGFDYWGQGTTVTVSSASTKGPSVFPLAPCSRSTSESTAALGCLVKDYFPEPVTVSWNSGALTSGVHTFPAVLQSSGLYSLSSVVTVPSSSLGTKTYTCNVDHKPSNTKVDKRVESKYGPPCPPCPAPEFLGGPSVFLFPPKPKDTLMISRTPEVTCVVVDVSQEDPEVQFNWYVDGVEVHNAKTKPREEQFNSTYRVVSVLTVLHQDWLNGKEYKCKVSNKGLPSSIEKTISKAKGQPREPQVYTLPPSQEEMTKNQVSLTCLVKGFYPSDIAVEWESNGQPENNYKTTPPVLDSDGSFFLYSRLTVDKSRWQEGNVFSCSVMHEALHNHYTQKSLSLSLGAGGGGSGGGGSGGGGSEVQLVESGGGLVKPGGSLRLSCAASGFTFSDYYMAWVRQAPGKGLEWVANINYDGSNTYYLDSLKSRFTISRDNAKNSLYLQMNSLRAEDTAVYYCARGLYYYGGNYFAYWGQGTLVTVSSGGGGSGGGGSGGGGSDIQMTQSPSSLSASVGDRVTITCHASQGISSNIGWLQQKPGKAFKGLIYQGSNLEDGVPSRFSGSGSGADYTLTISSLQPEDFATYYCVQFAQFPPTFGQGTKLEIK
B3: bispecific antibody LB241 (bispecific antibody, human IgG4 S228P, kappa)
light: B1 light
heavy: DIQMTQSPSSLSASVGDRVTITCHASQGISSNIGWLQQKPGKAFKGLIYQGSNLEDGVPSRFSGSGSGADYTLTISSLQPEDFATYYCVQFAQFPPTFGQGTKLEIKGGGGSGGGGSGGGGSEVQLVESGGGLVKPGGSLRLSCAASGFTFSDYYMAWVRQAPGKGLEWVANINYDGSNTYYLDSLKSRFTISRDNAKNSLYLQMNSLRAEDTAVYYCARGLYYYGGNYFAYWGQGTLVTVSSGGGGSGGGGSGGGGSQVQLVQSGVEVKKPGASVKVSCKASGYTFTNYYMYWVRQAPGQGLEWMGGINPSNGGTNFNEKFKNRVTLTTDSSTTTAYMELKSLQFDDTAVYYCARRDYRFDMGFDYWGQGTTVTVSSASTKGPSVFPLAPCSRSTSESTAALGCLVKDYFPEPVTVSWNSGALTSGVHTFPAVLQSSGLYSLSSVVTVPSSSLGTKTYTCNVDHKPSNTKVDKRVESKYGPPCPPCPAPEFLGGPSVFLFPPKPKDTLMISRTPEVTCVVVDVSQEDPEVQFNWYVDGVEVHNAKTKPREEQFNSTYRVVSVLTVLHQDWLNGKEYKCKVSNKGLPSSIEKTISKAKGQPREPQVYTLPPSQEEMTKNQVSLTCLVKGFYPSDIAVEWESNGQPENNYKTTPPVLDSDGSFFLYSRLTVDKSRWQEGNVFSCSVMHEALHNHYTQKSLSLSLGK
B4: bispecific antibody LB243 (bispecific antibody, human IgG4 S228P, kappa)
light: DIQMTQSPSSLSASVGDRVTITCHASQGISSNIGWLQQKPGKAFKGLIYQGSNLEDGVPSRFSGSGSGADYTLTISSLQPEDFATYYCVQFAQFPPTFGQGTKLEIKGGGGSGGGGSGGGGSEVQLVESGGGLVKPGGSLRLSCAASGFTFSDYYMAWVRQAPGKGLEWVANINYDGSNTYYLDSLKSRFTISRDNAKNSLYLQMNSLRAEDTAVYYCARGLYYYGGNYFAYWGQGTLVTVSSGGGGSGGGGSGGGGSEIVLTQSPATLSLSPGERATLSCRASKGVSTSGYSYLHWYQQKPGQAPRLLIYLASYLESGVPARFSGSGSGTDFTLTISSLEPEDFAVYYCQHSRDLPLTFGGGTKVEIKRTVAAPSVFIFPPSDEQLKSGTASVVCLLNNFYPREAKVQWKVDNALQSGNSQESVTEQDSKDSTYSLSSTLTLSKADYEKHKVYACEVTHQGLSSPVTKSFNRGECGGGGSGGGGSGGGGSEVQLVESGGGLVKPGGSLRLSCAASGFTFSDYYMAWVRQAPGKGLEWVANINYDGSNTYYLDSLKSRFTISRDNAKNSLYLQMNSLRAEDTAVYYCARGLYYYGGNYFAYWGQGTLVTVSSGGGGSGGGGSGGGGSDIQMTQSPSSLSASVGDRVTITCHASQGISSNIGWLQQKPGKAFKGLIYQGSNLEDGVPSRFSGSGSGADYTLTISSLQPEDFATYYCVQFAQFPPTFGQGTKLEIK
heavy: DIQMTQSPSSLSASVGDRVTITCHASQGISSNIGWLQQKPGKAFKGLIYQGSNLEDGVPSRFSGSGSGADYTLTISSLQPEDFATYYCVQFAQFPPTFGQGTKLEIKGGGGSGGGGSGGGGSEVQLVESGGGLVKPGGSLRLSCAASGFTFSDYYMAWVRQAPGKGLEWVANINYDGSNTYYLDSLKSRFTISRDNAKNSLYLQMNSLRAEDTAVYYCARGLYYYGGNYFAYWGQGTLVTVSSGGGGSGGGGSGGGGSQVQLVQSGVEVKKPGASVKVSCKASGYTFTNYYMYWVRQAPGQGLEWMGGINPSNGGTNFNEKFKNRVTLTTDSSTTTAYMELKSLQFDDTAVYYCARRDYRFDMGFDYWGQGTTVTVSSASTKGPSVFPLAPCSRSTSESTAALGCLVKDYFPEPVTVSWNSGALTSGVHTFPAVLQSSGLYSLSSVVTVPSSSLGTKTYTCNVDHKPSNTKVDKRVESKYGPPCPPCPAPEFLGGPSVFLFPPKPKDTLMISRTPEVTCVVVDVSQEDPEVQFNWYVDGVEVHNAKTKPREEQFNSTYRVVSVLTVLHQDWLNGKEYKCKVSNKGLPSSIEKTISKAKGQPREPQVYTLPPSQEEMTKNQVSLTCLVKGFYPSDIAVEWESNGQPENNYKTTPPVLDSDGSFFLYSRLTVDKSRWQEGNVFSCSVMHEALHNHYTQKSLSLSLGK
B5: bispecific antibody LB1414 (bispecific antibody, human IgG4 S228P, kappa)
light: EIVLTQSPATLSLSPGERATLSCRASKGVSTSGYSYLHWYQQKPGQAPRLLIYLASYLESGVPARFSGSGSGTDFTLTISSLEPEDFAVYYCQHSRDLPLTFGGGTKVEIKRTVAAPSVFIFPPSDEQLKSGTASVVCLLNNFYPREAKVQWKVDNALQSGNSQESVTEQDSKDSTYSLSSTLTLSKADYEKHKVYACEVTHQGLSSPVTKSFNRGECGGGGSGGGGSGGGGSEVQLVESGGGLVKPGGSLRLSCAASGFTFSDYYMAWVRQAPGKGLEWVANINYDGSNTYYLDSLKSRFTISRDNAKNSLYLQMNSLRAEDTAVYYCARGLYYYGGNYFAYWGQGTLVTVSSGGGGSGGGGSGGGGSDIQMTQSPSSLSASVGDRVTITCHASQGISSNIGWLQQKPGKAFKGLIYQGSNLEDGVPSRFSGSGSGADYTLTISSLQPEDFATYYCVQFAQFPPTFGQGTKLEIK
heavy: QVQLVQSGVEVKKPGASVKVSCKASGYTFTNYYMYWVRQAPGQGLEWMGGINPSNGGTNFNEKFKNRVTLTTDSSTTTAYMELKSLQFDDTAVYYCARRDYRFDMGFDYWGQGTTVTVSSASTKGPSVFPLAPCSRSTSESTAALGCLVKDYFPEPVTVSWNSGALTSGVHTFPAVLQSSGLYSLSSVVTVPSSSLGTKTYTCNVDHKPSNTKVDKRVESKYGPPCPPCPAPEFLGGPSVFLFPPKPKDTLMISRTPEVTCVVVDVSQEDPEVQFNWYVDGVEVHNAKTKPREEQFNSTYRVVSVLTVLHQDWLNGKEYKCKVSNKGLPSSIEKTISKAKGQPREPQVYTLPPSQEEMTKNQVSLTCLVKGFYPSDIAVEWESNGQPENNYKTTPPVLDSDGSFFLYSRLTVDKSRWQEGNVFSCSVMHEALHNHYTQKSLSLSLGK
B6: bispecific antibody LB242 (bispecific antibody, human IgG4 S228P, kappa)
light: B5 light
heavy: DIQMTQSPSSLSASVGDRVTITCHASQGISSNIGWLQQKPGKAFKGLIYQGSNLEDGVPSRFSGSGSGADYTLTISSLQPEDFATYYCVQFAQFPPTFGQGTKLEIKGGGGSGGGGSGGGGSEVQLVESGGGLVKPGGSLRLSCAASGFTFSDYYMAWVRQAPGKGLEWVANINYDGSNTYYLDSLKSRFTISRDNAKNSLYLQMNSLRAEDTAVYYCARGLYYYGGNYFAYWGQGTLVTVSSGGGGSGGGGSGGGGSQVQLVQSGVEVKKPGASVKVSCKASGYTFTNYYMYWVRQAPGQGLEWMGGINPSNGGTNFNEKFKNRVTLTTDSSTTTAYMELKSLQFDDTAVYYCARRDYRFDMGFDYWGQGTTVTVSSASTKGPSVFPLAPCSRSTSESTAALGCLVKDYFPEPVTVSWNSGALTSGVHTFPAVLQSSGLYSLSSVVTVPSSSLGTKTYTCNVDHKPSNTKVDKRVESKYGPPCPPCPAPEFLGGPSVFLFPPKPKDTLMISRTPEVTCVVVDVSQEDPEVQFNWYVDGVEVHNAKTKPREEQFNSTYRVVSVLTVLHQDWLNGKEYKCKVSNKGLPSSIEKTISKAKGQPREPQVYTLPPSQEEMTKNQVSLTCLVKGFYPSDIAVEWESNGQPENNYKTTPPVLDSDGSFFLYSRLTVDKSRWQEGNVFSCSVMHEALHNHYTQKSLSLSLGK
B7: bispecific antibody LB1412 (bispecific antibody, human IgG4 S228P, kappa)
light: EIVLTQSPATLSLSPGERATLSCRASKGVSTSGYSYLHWYQQKPGQAPRLLIYLASYLESGVPARFSGSGSGTDFTLTISSLEPEDFAVYYCQHSRDLPLTFGGGTKVEIKRTVAAPSVFIFPPSDEQLKSGTASVVCLLNNFYPREAKVQWKVDNALQSGNSQESVTEQDSKDSTYSLSSTLTLSKADYEKHKVYACEVTHQGLSSPVTKSFNRGEC
heavy: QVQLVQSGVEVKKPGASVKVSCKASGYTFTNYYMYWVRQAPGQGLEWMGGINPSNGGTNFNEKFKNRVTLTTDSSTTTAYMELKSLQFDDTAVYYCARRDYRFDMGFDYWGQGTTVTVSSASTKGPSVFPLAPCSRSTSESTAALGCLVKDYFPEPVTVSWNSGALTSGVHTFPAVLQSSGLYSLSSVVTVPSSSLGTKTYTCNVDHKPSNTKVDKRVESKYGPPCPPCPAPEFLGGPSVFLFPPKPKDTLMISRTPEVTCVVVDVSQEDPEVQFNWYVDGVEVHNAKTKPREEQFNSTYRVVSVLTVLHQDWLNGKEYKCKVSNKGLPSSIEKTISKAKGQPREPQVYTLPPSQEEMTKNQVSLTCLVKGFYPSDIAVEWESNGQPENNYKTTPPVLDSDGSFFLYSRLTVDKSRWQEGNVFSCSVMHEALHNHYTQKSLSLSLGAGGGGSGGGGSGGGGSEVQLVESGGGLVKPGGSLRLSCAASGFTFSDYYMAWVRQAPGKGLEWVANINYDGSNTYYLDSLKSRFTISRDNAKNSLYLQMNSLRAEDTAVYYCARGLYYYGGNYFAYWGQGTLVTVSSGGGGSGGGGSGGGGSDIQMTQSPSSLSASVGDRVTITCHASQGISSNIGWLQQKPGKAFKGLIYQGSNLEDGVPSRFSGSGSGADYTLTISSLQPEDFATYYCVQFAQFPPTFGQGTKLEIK

In the first assay the target is T1, human TIM-3 extracellular domain-human IgG1 Fc fusion protein (human, UniProt Q8TDQ0 22-199).
T1 construct: Made in house or bought (ACROBiosystems TM3-H5258); also called TIM-3-hFc; not shown: human IgG1 Fc
Put plainly: ELISA. The method, then: Goat-anti-hFc (Jackson, 109-005-008) was diluted to a concentration of 1 μg/ml with PBS buffer (pH 7.4) and added to a 96-well microplate (Corning, CLS3590-100EA) at a volume of 50 μl/well, then incubated in an incubator at 37° C. for 2 hours (Or the antigen TIM-3 was directly used to coat the microplate with a concentration of 0.5 μg/ml, and then the antibody to be tested was directly added). After discarding the liquid, a blocking solution of 5% skimmed milk (skimmed milk powder purchased from Bright) diluted with PBS was added at 200 μl per well, and the microplate was incubated for 2.5 hours at 37° C. or overnight (16-18 hours) at 4° C. for blocking. The blocking solution was discarded, and the microplate was washed 5 times with PBST buffer (PBS with pH 7.4 containing 0.05% tween-20), then 50 μl/well of 0.5 μg/ml TIM-3-hFc (Example 1) was added and incubated for 2 hours in a 37° C. incubator. After incubation, the microplate was washed 6 times with PB ST. 50 μl/well of supernatant (containing testing antibody) or different concentrations of the antibody to be tested was added, and the microplate was incubated at 37° C. for 2 hours and washed 5 times with PBST. 50 μl/well of 1:2500 diluted HRP-labeled secondary antibody (Jackson Immuno Research, 115-035-003) was added to the microplate, incubating at 37° C. for 1 hour. After washing the microplate 5 times with PBST, 50 μl/well TMB chromogenic substrate (KPL, 52-00-03) was added to the microplate, followed by incubating at room temperature for 10-15 min.
A general note: In an ELISA, binding on a coated surface is turned into a signal by an enzyme label.
As for B1, the EC50 worked out at 0.521 nM.
For B2, the EC50 is 0.21 nM.
Turning to B3, the response was half-maximal at 0.547 nM (EC50).
Regarding B4, the EC50 was 0.216 nM.
Same read-out and setting: next, B5: 3.52 nM; B6: 0.124 nM.
For B7, a half-maximal response (EC50) required 3.42 nM.

The target of another assay is T2, human PD-1 extracellular domain protein expressed in Example 1 (tag not stated) (human, UniProt Q15116 25-170).
T2 construct: extracellular domain; also called PD-1 protein; not shown: human IgG1 Fc or his tag
Put plainly: ELISA, PD-1 coated. How it is done: (§1) PD-1 expressed in Example 1 was diluted to a concentration of 1 μg/ml with PBS buffer, pH 7.4, and added to a 96-well microplate (Corning, CLS3590-100EA) at 50 μl per well, thereby incubating in an incubator at 37° C. for 2 hours. After discarding the liquid, a blocking solution of 5% skimmed milk (Shanghai Shenggong Biological Engineering Co., Ltd., A600669-0250) diluted with PBS was added at 200 μl per well, followed by incubating at 37° C. for 3 hours or 4° C. overnight (16-18 hours)) for blocking. Subsequently, the blocking solution was discarded, and the microplate was washed 5 times with PBST buffer (pH 7.4 PBS containing 0.05% tween-20). […] Subsequently, the microplate was washed 5 times with PBST, then 50 μl/well of 1:2500 diluted HRP-labeled secondary antibody (Jackson Immuno Research, 115-035-003) was added, thereby incubating at 37° C. for 1 hour. After washing the microplate 5 times with PBST, 50 μl/well TMB chromogenic substrate (KPL, 52-00-03) was added, then incubated at room temperature for 5-10 min. Finally, 50 μl/well of 1M H₂SO₄ was added to stop the reaction. […] Go microplate reader (ThermoFisher, 51119200) was used to read the absorption value at 450 nm and the EC50 based on the OD value was calculated.
On to B1, for which the EC50 came to 0.066 nM.
In turn, B2 gave an EC50 of 0.18 nM.
B3 returned an EC50 of 0.365 nM.
For B4, the EC50 is 0.214 nM.
Still for that read-out and setting: next, B5: 0.045 nM; B6: 0.084 nM; B7: 0.079 nM.

The next assay concerns the target T2, human PD-1 extracellular domain protein …. Put plainly: ELISA, EC50 of bispecific over EC50 of the monoclonal control. The method, then: After washing the microplate 5 times with PBST, 50 μl/well TMB chromogenic substrate (KPL, 52-00-03) was added to the microplate, followed by incubating at room temperature for 10-15 min.
as §1
Consider B1, for which the “Multiple of EC50 variation” value turned out to be 0.69 ratio.
Take B2: the “Multiple of EC50 variation” value came to 0.68 ratio.
For the molecule B3, the “Multiple of EC50 variation” value amounted to 3.8 ratio.
As to B4, the “Multiple of EC50 variation” value came out at 0.81 ratio.
Consider B5, for which the “Multiple of EC50 variation” value was 0.47 ratio.
In the case of B6, the “Multiple of EC50 variation” value came out at 0.32 ratio.
As to B7, the “Multiple of EC50 variation” value was found to be 0.82 ratio.

A further assay addresses T1, human TIM-3 extracellular domain-human …. Described as above.
As to B1, the “Multiple of EC50 variation” value worked out at 0.67 ratio.
Still for that read-out and setting: to B2 belongs 1.32 ratio.
With B3, the “Multiple of EC50 variation” value turned out to be 0.7 ratio.
On the same count and under the same terms, next, B4: 1.36 ratio.
Regarding B5, the “Multiple of EC50 variation” value stood at 4.5 ratio.
Take B6: the “Multiple of EC50 variation” value was 0.78 ratio.
As to B7, the “Multiple of EC50 variation” value came to 4.37 ratio.
